Measured values as given in patent publication US20220054583A1 (ANBITION S R L, published 2022).
Each block holds one binder with its values, some of them ahead of it. Square brackets hold non-standard residues; d marks the D form. Ends that are not written are not given here. * marks the point of attachment. Met(O2) = CS(=O)(=O)CC[C@H](N)C(=O)O; Cha = N[C@@H](CC1CCCCC1)C(=O)O; Bn = c1ccc(C*)cc1

Tests used:
[1] = molecular target: T1, human recombinant receptor VEGFR-1, seven extracellular domains fused to the Fc domain of human IgG (R&D … (human, UniProt P17948 27-758)); assay: competition ELISA, VEGF-A binding to coated VEGFR-1-Fc
T1 construct: Bought reagent; also called Flt-1; not shown: Fc domain of human IgG

[2] = molecular target: T2, human recombinant receptor VEGFR-1, seven extracellular domains fused to the Fc domain of human IgG (R&D Systems, cat No 321-FL) (human), P17948; assay: competition ELISA, PlGF binding to coated VEGFR-1-Fc
T2 chain: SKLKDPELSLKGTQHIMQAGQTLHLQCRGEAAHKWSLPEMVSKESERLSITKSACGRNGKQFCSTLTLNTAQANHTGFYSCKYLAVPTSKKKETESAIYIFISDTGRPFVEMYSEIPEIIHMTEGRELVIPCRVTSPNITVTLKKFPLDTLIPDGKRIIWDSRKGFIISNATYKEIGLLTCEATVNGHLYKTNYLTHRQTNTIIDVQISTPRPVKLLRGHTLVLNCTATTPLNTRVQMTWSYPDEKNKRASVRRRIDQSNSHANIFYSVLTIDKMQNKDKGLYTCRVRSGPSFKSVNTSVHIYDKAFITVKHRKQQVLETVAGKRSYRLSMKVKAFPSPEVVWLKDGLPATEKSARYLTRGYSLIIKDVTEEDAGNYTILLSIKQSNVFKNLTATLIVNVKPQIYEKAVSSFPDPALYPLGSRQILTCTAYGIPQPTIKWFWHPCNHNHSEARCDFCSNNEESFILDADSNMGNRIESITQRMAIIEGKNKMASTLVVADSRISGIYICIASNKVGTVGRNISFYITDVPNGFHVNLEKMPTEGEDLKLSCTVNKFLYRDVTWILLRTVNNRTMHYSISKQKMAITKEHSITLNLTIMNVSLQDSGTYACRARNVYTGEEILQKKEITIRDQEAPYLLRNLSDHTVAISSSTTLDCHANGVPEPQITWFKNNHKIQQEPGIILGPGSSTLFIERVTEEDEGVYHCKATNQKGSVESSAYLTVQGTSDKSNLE

[3] = molecular target: T2, human recombinant receptor VEGFR-1, …; assay: competition ELISA, VEGF-A binding to coated VEGFR-1-Fc
[4] = molecular target: T2, human recombinant receptor VEGFR-1, …; assay: competition ELISA, residual binding of PlGF (5 ng/ml) to coated VEGFR-1-Fc, peptide 780 nM
[5] = molecular target: T2, human recombinant receptor VEGFR-1, …; assay: competition ELISA, residual binding of PlGF (5 ng/ml) to coated VEGFR-1-Fc, peptide 1560 nM
[6] = molecular target: T2, human recombinant receptor VEGFR-1, …; assay: competition ELISA, residual binding of PlGF (5 ng/ml) to coated VEGFR-1-Fc, peptide 3125 nM
[7] = molecular target: T2, human recombinant receptor VEGFR-1, …; assay: competition ELISA, residual binding of PlGF (5 ng/ml) to coated VEGFR-1-Fc, peptide 6250 nM
[8] = molecular target: T2, human recombinant receptor VEGFR-1, …; assay: competition ELISA, residual binding of PlGF (5 ng/ml) to coated VEGFR-1-Fc, peptide 12500 nM
[9] = molecular target: T2, human recombinant receptor VEGFR-1, …; assay: competition ELISA, residual binding of PlGF (5 ng/ml) to coated VEGFR-1-Fc, peptide 25000 nM
[10] = molecular target: T2, human recombinant receptor VEGFR-1, …; assay: competition ELISA, residual binding of PlGF (5 ng/ml) to coated VEGFR-1-Fc, peptide 50000 nM
[11] = molecular target: T2, human recombinant receptor VEGFR-1, …; assay: competition ELISA, residual binding of VEGF-A (5 ng/ml) to coated VEGFR-1-Fc, peptide 780 nM
[12] = molecular target: T2, human recombinant receptor VEGFR-1, …; assay: competition ELISA, residual binding of VEGF-A (5 ng/ml) to coated VEGFR-1-Fc, peptide 1560 nM
[13] = molecular target: T2, human recombinant receptor VEGFR-1, …; assay: competition ELISA, residual binding of VEGF-A (5 ng/ml) to coated VEGFR-1-Fc, peptide 3125 nM
[14] = molecular target: T2, human recombinant receptor VEGFR-1, …; assay: competition ELISA, residual binding of VEGF-A (5 ng/ml) to coated VEGFR-1-Fc, peptide 6250 nM
[15] = molecular target: T2, human recombinant receptor VEGFR-1, …; assay: competition ELISA, residual binding of VEGF-A (5 ng/ml) to coated VEGFR-1-Fc, peptide 12500 nM
[16] = molecular target: T2, human recombinant receptor VEGFR-1, …; assay: competition ELISA, residual binding of VEGF-A (5 ng/ml) to coated VEGFR-1-Fc, peptide 25000 nM
[17] = molecular target: T2, human recombinant receptor VEGFR-1, …; assay: competition ELISA, residual binding of VEGF-A (5 ng/ml) to coated VEGFR-1-Fc, peptide 50000 nM
[18] = molecular target: T2, human recombinant receptor VEGFR-1, …; assay: competition ELISA, PlGF or VEGF-A binding to coated VEGFR-1-Fc; reference iVR1

B2: iVR1, tetrameric peptide of formula (IIc) (peptide)
peptide: H-[dE]-Cys(Bn)-[Cha]
chain 1: Lys
chain 2: Lys-Gly-NH2
modifications: also: branched: four ECX arms on two Z1 Lys, both on Z2 Lys
IC50 [2]: 10000 nM | IC50 [3]: 10000 nM | binding % [4]: 99.4% | binding % [5]: 101% | binding % [6]: 96.1% | binding % [7]: 68.5% | binding % [8]: 44.6% | binding % [9]: 36% | binding % [10]: 26.3% | binding % [11]: 98.4% | binding % [12]: 96.2% | binding % [13]: 93.9% | binding % [14]: 66% | binding % [15]: 37% | binding % [16]: 21.4% | binding % [17]: 8.6%

B5: iVR1-Cys, tetrameric peptide of formula (IIb) (peptide)
peptide: H-[dE]-Cys(Bn)-[Cha]
chain 1: Lys
chain 2: Lys-[dC]-NH2
modifications: also: branched: four ECX arms on two Z1 Lys, both on Z2 Lys
IC50 [2]: < 1000 nM | IC50 [3]: 1000 nM | fold inhibitory capacity against iVR1 [18]: 10 fold | binding % [4]: 83.8% | binding % [5]: 35.5% | binding % [6]: 25.5% | binding % [7]: 14.1% | binding % [8]: 12.6% | binding % [9]: 10.3% | binding % [10]: 9.18% | binding % [11]: 92.3% | binding % [12]: 43.7% | binding % [13]: 21.7% | binding % [14]: 12.5% | binding % [15]: 9.81% | binding % [16]: 7.99% | binding % [17]: 6.5%

Next, values leading:

IC50 [1]: 4620 nM
B1: tetrameric peptide of formula (II) with Y2 = L-methionine sulfone (peptide)
peptide: [dE]-Cys(Bn)-[Cha]
chain 1: Lys
chain 2: Lys-[Met(O2)]
modifications: also: tetrameric: four tripeptide arms on two Z1 lysines, carried on Z2 lysine
notes: Variant of iVR1-Cys with another Y2; only Y2 is printed

IC50 [1]: 2430 nM
B3: tetrameric peptide of formula (II) with Y2 = D-serine (peptide)
peptide: [dE]-Cys(Bn)-[Cha]
chain 1: Lys
chain 2: Lys-[dS]
modifications: also: tetrameric: four tripeptide arms on two Z1 lysines, carried on Z2 lysine
notes: as for B1

IC50 [1]: 2030 nM
B4: tetrameric peptide of formula (II) with Y2 = L-cysteine (peptide)
peptide: [dE]-Cys(Bn)-[Cha]
chain 1: Lys
chain 2: Lys-Cys
modifications: also: tetrameric: four tripeptide arms on two Z1 lysines, carried on Z2 lysine
notes: Variant of iVR1-Cys with another Y2
